Laboratory results from patent US10005846 (LIFEARC, dated 2018).
Where a chain is given by its changes, count along the chain named. Values belong to the binder of their own block, whether it stands above or below them.

How the values were obtained:
rat TG2 = biological target: T1, rat TG2 (rat, UniProt Q9WVJ6 1-686, limits assumed); experiment: western blot and ELISA
T1 sequence: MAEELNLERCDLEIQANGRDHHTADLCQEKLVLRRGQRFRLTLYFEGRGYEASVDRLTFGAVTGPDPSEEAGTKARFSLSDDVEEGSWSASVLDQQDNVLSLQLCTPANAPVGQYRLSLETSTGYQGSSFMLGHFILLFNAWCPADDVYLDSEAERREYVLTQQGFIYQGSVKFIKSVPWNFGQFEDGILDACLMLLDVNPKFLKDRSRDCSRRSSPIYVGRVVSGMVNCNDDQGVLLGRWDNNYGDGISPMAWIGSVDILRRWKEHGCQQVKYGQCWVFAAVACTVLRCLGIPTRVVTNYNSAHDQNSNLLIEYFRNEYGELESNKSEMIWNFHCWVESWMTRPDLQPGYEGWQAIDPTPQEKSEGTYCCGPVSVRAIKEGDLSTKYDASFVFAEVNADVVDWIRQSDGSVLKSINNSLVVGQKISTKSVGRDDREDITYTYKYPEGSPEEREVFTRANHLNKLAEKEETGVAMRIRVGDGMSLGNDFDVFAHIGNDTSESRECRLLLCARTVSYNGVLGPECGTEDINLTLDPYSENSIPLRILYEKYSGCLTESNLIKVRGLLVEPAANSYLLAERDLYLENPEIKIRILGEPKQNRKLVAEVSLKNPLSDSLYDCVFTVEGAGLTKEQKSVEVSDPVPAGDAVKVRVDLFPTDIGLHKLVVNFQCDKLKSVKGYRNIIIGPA

cynomolgus monkey TG2 = biological target: T2, cynomolgus monkey TG2 (cynomolgus monkey, UniProt A0A2K5VXI8 1-687); experiment: SPR (Biacore T200), antibody captured on anti-human IgG1 Fc chip, TG2 injected; -Ca2+
T2 construct: Bought recombinant protein; also called cynomogulus monkey TG2; cyano TG2
T2 sequence: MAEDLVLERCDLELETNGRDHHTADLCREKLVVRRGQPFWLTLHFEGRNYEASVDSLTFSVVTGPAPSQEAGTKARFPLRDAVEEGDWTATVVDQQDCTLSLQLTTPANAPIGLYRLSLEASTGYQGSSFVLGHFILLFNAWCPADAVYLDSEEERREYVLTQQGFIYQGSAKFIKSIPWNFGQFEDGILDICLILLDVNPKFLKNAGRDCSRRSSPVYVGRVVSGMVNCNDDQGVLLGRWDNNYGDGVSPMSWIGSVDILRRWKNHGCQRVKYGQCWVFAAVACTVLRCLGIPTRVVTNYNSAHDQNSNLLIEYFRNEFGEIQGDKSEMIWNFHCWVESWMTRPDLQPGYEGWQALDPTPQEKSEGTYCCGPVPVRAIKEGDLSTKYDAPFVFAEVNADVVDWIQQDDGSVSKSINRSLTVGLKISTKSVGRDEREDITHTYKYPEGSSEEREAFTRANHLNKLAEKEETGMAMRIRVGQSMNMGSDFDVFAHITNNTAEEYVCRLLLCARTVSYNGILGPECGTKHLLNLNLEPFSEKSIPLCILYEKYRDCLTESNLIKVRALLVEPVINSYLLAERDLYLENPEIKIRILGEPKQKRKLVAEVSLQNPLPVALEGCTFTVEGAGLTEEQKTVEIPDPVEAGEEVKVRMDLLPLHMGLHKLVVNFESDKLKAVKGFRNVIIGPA
Method: Recombinant cynomolgus monkey TG2 was obtained from Trenzyme. Surface plasmon resonance (SPR) was measured on a Biacore T200 instrument (GE Healthcare). CM5 chips (GE Healthcare cat. no.: BR-1006-68) were coated with monoclonal mouse anti-human IgG1 (Fc) (MAH) antibody (GE Healthcare cat. no.: BR-1008-39) by amine-coupling as described in the manufacturers instructions. HBS-EP+ buffer (0.01 M HEPES, 0.15 M NaCl, 3 mM EDTA, 0.05% v/v Surfactant P20) and HBS-P+ buffer (0.01 M HEPES, 0.15 M NaCl, 0.05% Surfactant P20) were purchased from GE Healthcare as 10× stocks (cat. nos.: BR-1006-69 and BR-1006-71). Calcium Chloride solution was obtained from Sigma Aldrich (cat. no.:21115).
The method employed to determine the affinity of the anti-TG2 antibodies involved the capture of the chimeric or humanised antibodies on a MAH coated CM5 chip, followed by the injection of a series of TG2 samples in running buffer. The running buffer was 1×HBS-P+ containing 1 mM CaCl_2, or 1×HBS-EP+ for calcium-free experiments. Antibody capture was carried out for a contact time of 120 seconds at a flow rate of 10 μl/min resulting in the capture of approximately 40-80 RU. TG2 was injected over the immobilised antibody at concentrations ranging from 25 nM to 400 nM with a contact time up to 600 seconds at a flow rate of 30 μl/min. Dissociation of TG2 was typically measured for up to 5400 seconds (1.5 hours). Regeneration of the chip was then performed using 3 M MgCl_2, for a contact time of 60 seconds at a flow rate of […], followed by a 300 s stabilisation period before the next sample. For each of human and cynomolgus monkey TG2, at least 5 injections at a variety of concentrations were performed in at least two separate experiments.
Kinetic data were exported from the Biacore T200 Evaluation Software and analysed using GraphPad Prism, where the association phases and dissociation phases were analysed separately using a one phase association model and one-phase exponential decay model respectively. Association rates ($kon$) were calculated for each curve individually, and dissociation rates ($koff$) values from the long dissociation phase data collected. Where $koff$ values were calculated to be $<1\times10^-5$ s^-1, values were set at 1×10^-5 for analysis, as rates slower than this could not be estimated accurately.

B2: DC1 murine monoclonal antibody (antibody, V domains shown)
VH: EVQLVESGGGLVKPGGSLKLSCAASGFTLSTHAMSWVRQTPEKRLEWVATISSGGRSTYYPDSVKGRFTISRDNVKNTLYLQLSSLRSEDTAVYFCARLISTYWGQGTTLTVSS
VL: DITMTQSPSSIYASLGERVTITCKASQDINSYLTWFQQKPGKSPKILIYLVNRLVDGVPSRFSGSGSGQDYALTISSLEYEDMGIYYCLQYDDFPYTFGGGTKLEIK
notes: Mouse hybridoma IgG; heavy chain amplified with primer MHCG1, kappa light chain; also called mDC001
- binding result (rat TG2): binds

B3: cDH001 chimeric antibody (murine DH2 variable regions) (antibody, human IgG1, V domains shown)
VH: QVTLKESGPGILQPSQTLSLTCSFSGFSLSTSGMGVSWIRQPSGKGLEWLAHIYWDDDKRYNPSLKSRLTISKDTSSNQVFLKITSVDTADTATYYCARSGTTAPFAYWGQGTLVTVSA
VL: QIVLTQSPAIMSASPGEKVTMTCSASSSVSYMYWYQQKPGSSPRLLIYDTSNLASGVPVRFSGSGSGTSYSLTISRMEAEDAATFYCQQWSSSPLTFGAGTKLELK
- Kd (cynomolgus monkey TG2): 2.4 nM
- koff (cynomolgus monkey TG2): 6.3e-05 s⁻¹
- kon (cynomolgus monkey TG2): 26000 M⁻¹ s⁻¹

B4: cDD9001 chimeric antibody (murine DD9 variable regions) (antibody, human IgG1, V domains shown)
VH: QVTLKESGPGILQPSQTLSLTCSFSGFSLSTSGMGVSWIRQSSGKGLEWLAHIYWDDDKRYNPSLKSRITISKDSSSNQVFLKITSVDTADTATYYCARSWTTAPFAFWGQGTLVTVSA
VL: B3 VL with S30D, E78G, F85Y, S91N
- Kd (cynomolgus monkey TG2): 0.89 nM
- koff (cynomolgus monkey TG2): 4.1e-05 s⁻¹
- kon (cynomolgus monkey TG2): 46000 M⁻¹ s⁻¹

Now from value to binder:

- binding result (rat TG2): binds
B1: JE12 murine monoclonal antibody (antibody, V domains shown)
VH: EVQLQQSGPELVKPGASVKMSCKASGYRFTSYVMHWVKQKSGQGLEWIGYINPYNDGAKYNEKFKGKATLTSDKSSSTAYMELSSLTSEDSAVYYCARLSSDYWGQGTTLTVSS
VL: DVLMTQNPLSLPVSLGDQASISCRSSQSIEHINGNTYLEWYLQKPGQSPKFLIYKVSNRFSGVPDRFSGSGSGTDFTLRISRVEAEDLGIYYCFQGSHVPFTFGGGTKLEIK
notes: Mouse hybridoma IgG; heavy chain amplified with primer MHCG1, kappa light chain

- Kd (cynomolgus monkey TG2): < 0.05 nM
- koff (cynomolgus monkey TG2): < 1e-05 s⁻¹
- kon (cynomolgus monkey TG2): 190000 M⁻¹ s⁻¹
B5: cBB001 chimeric antibody (murine BB7 variable regions) (antibody, human IgG1, V domains shown)
VH: AVQLVESGGGLVKPGGSLKLSCAASGIIFSSSAMSWVRQTPEKRLEWVATISSGGRSTYYPDSVKGRFTVSRDSAKNTLYLQMDSLRSEDTAIYYCAKLISPYWGQGTTLTVSS
VL: AIKMTQSPSSMYASLGERVIITCKASQDINSYLTWFQQKPGKSPKTLIYLTNRLMDGVPSRFSGSGSGQEFLLTISGLEHEDMGIYYCLQYVDFPYTFGGGTKLEIK
notes: also called chimeric BB7
